We go through 17 molecules from paper PMC8554075 (Immunity, 2021).

Test [1] addresses T1, SARS-CoV-2 receptor-binding domain (SARS-CoV-2, UniProt P0DTC2). Kind of test: cell-based or functional assay.
Test [2] deals with RaTG13 receptor-binding domain (Bat coronavirus RaTG13, UniProt A0ABF7PLN6).
In test [3] the target is SARS-CoV-1 receptor-binding domain (SARS-CoV (SARS-CoV-1), isolate not …, UniProt P59594).
Test [4] has as its target T1, SARS-CoV-2 receptor-binding domain.

B1: AB-1987, expressed as human IgG1 (antibody, V domains shown)
VH: QVQLVESGGGVVQPGRSLRLSCAASGFTFSSYGMHWVRQAPGKGLEWAAVIWYDGSNKYYADSVKGRFTISRDNSKNTLYLQMNSLRAEDTAVYYCARESSGGFDYWGQGTLVTVSS
VL: NIQMTQSPSAMSASVGDRVTITCRARQGISNFLAWFQQKPGKVPKHLVYAASSLRSGVPSRFSGSGSGTEFTLTISSLQPEDFATYYCLQHNNYPYTFGQGTKLEIK
On to B1, for which, in test [1], the “neutralization of live CoV2 virus, Vero E6 cells (blocks RBD-ACE2)” value was found to be 0.054 µg/mL.

B2: AB-3545 (antibody, V domains shown)
VH: QVQLQESGPGLVKPSETLSLTCAVSGGSISNYHWNWIRQPPGKGLEWIGYIYYSGRTNYNPTLKSRVNISVDTSKNQFSLKLSSVTAADTAVYYCAREMRRGYSGYDDWDLYAFDIWGQGTMVTVSS
VL: DIQLTQSPSFLSTYVGDRVTITCRASQGISTYLAWYQQKPGKAPKLLIYAAFTLQSGVPSRFSGSGSGTEFTLTISSLQPEDFATYYCQQLNSYPHTFGQGTKLEIK
For the molecule B2, the binding result in test [2], in test [3] and in test [4] was “binds” in each case.

B3: 3581 (antibody, V domains shown)
VH: QVQLQESGPGLVKPSETLSLTCTVSGGSISTYYWSWTRQPPGKGLEWIGNIYYSGSTIYNPSLKSRVTISVDTSKNQFSLKLTSVTAADTAVYYCAREMRRGYSGYDYWDLYAFDIWGQGTMVTVSS
VL: DIQLTPSPSFLSASVGDRVTITCRASQGISSYLAWYQQTPGKAPKLLIYAASTLQSGVPSRFSGSGSGTEFTLTISSLQPEDFATYYCQQLNSYPHTFGQGTKLEIK
Take B3: the binding result in test [2], in test [3] and in test [4] was “binds” in each case.

B4: AB-3492 (antibody, V domains shown)
VH: QVQLQESGPGLVKPSETLSLTCAVSGGSISSYYWNWIRQPPGKGLEWIGYIYYSGRTNYNPSLKSRVTISVDTSKNQFSLKLSSVTAADTAVYYCAREMRRGYSGYDDWDLYAFDIWGQGTMVTVSS
VL: DIQLTQSPSFLSTSVGDRVTITCRASQGISSYLAWYQQKPGKAPKLLIYAASTLQSGVPSRFSGSGSGTEFTLTISSLQPEDFATYYCQQLNSYPHTFGQGTKLEIK
Take B4: the binding result in test [2], in test [3] and in test [4] was “binds” in each case.

B5: 3475 (antibody, V domains shown)
VH: QVQLQESGPGLVKPSETLSLTCTVSGDSISSYHWNWIRQPPGKGLEWIGYIYYSGSTNYNPSLKSRVTISVHTSKNQFSLRLSSVTAADTAVYYCAKEMRRGYSGYDYWDLYAFDIWGQGTMVTVSS
VL: DIQLTQSPSFLSASVGDRVTVTCRASQGISSYLAWYQQKPGKAPKLLIYAASTLQSGVPSRFSGSGSGTEFTLTISSLQPEDFATYYCQQLNSYPHTFGQGTKLEIK
As to B5, the binding result in test [2], in test [3] and in test [4] was “binds” each time.

B6: AB-3571 (antibody, V domains shown)
VH: QVQLQESGPGLVKPSETLSLTCAVSGGSISSYHWNWIRQPPGKGLEWIGYIYYSGRTNYNPTLKSRVNISVDTSKNQFSLKLSSVTAADTAVYYCAREMRRGYSGYDYWDLYAFDIWGQGTMVTVSS
VL: DIQLTQSPSFLSTSVGDRVTITCRASQDISTYLAWYQQKPGKAPKLLIYAASTLQSGVPSRFSGSGSGTEFTLTISSLQPEDFVTYYCQQLNSYPHTFGQGTKLEIK
As to B6, the binding result in test [2], in test [3] and in test [4] was “binds” each time.

B7: 3636 (antibody, V domains shown)
VH: QVQLQESGPGLVKPSETLSLTCTVSGGSISSYHWNWIRQPPGKGLEWIGYIYYSGSTNYNPSLKSRVSISVDTSKNQFSLKLSSVTAADTAVYYCAREMRRGYSGYDYWDLYAFDIWGQGTMVTVSS
VL: DIQLTQSPSFLSASVRDRVTITCRASQGISSYLAWYQQKPGKAPKLLIYAASTLQSGVPSRFSGSGSGTEFTLTISSLQPEDFATYYCQQLNNYPHTFGQGTKLEIK
Turning to B7, the binding result in test [2], in test [3] and in test [4] was “binds” in each case.

B8: 3513 (antibody, V domains shown)
VH: QVQLQESGPGLVKPSETLSLTCTVTGGSINNYFWSWIRQPPGKGLEWIGNIYYSGNTIYNPSLKSRVTLSIDTSKNQFSLRLTSVTAADTAVYYCAREMRRGYSGYDYWDLYAFDVWGQGTMVTVSS
VL: DIQLTQSPSFLSASVQDRVTITCRASQDISSYLAWYQQKPGKAPKLLIYAASTLQSGVPSRFSGSGSGTEFTLTISSLQPEDFATYYCQQLNSYPHTFGQGTKLEIK
For the molecule B8, the binding result in test [2], in test [3] and in test [4] was “binds” throughout.

B9: 3476 (antibody, V domains shown)
VH: QVQLQESGPGLVKPSETLSLTCAVSGGSISSYYWSWIRQPPGKGLEWIGYIYYSGRTNYNPSLKSRVTISVDTSKNQFSLKLSSVTAADTAVYYCAREMRRGYSGYDDWDLYAFDIWGQGTMVTVSS
VL: DIQLTQSPSFLSTSIGDRVTITCRASQGISSYLAWYQQKPGKAPNLLIYAASTLQSGVPSRFSGSGSGTEFTLTISSLQPEDFATYYCQQLNSYPHTFGQGTKLEIK
As to B9, the binding result in test [2], in test [3] and in test [4] was “binds” throughout.

B10: 3521 (antibody, V domains shown)
VH: QVQLQESGPGLVKPSETLSLTCTVSGGSISSYHWSWIRQPPGKGLEWIGYIYYSGSTIYNPSLKSRVSISVDTSQNQFSLKLSSVTAADTAVYYCAREMPRGYSGYDYWDLYAFDIWGQGTMVTVSS
VL: DIQLTQSPSFLSASVRDRVTITCRASQGISSYLAWYQQKPGKAPKLLIYAASTLQSGVPSRFSGSGSGTEFTLTISSLQPEDFATYYCQQLNNYPHTFGQGTKLEIK
With B10, the binding result in test [2], in test [3] and in test [4] was “binds” in each case.

B11: 3645 (antibody, V domains shown)
VH: QVQLQESGPGLVKPSETLSLTCAVSGGSISSYYWSWIRQPPGKGLEWIGYIYYSGRINYNPSLKSRVTISVDTSKNQFSLKLSSVTAADTAVYYCAREMRRGYSGYDDWDLYAFDIWGQGTMVTVSS
VL: DIQLTQSPSFLSTSVGDRVTITCRASQGISSYLAWYQQKPGKAPKLLIYAASTLQSGVPSRFSGSGSGTEFTLTISSLQPEDFATYYCQQLNSYPHTFGQGTKLEIK
B11: the binding result in test [2], in test [3] and in test [4] was “binds” each time.

B12: 3517 (antibody, V domains shown)
VH: QVQLQESGPGLVKPSETLSLTCTVSGGSISSYHWNWIRQPPGKGLEWIGYIYYSGSTNYNPSLKSRVSISVDTSKNQFSLKLSSVTAADTAVYYCAREMRRGYSGYDYWDLYAFDIWGQGTMVTVSS
VL: DIQLTQSPSFLSASVRDRVTITCRASQDISSYLAWYQQKPGKAPKLLIYAASTLQSGVPSRFSGSGSGTEFTLTISSLQPEDFATYYCQQLNNYPHTFGQGTKLEIK
With B12, the binding result in test [2], in test [3] and in test [4] was “binds” each time.

B13: 3881 (antibody, V domains shown)
VH: QVQLQGSGPGLVKPSETLSLTCTVSGGSISSYYWTWIRQPPGKGLEWIGYIYYSGITTYNPSLKSRITISVDTSKNQFSLKLRSVTAADTAVYYCAREMRRGYSGYDYWDLYPFDIWGQGTMVTVSS
VL: DIQLTQSPSFLSASVGDRVTITCRASQGISSYLAWYQQKPGKAPKLLIYSASTLQSGVPSKFSGSGSGTEFTLTISSLQPEDFATYYCQQLNSYPHTFGQGTKLEIK
For B13, the binding result in test [2], in test [3] and in test [4] was “binds” each time.

B14: 3573 (antibody, V domains shown)
VH: QVLLQESGPGLVKPSETLSLTCAVSGGSISSYYWSWIRQPPGKGLEWIGYIYYSGRTNYNSSLKSRVTISVDTSKNQFSLKLSSVTAADTAVYYCAREMRRGYSGYDDWDLYAFDIWGQGTMVTVSS
VL: DIQLTQSPSFLSTSVGDRVTITCRASQGISSYLAWYQQKPGKAPKLLIYAASTLQSGVPSRFSGSGSGTDFTLTISSLQPEDFATYYCQQLNSYPHTFGQGTKLEIK
Regarding B14, the binding result in test [2], in test [3] and in test [4] was “binds” throughout.

B15: 3606 (antibody, V domains shown)
VH: QVQLQESGPGLVKPSETLSLTCAVSGGSISSYYWSWIRQPPGKGLEWIGYIYYSGRTNYNSSLKSRVTISVDTSKNQFSLKLSSVTAADTAVYYCAREMRRGYSGYDDWDLYAFDIWGQGTMVTVSS
VL: DIQLTQSPSFLSTSVGDRVTITCRASQGISSYLAWYQQKPGKAPKLLIYAASTLQSGVPSRFSGSGSGTDFTLTISSLQPEDFATYYCQQLNSYPHTFGQGTKLEIK
B15: the binding result in test [2], in test [3] and in test [4] was “binds” throughout.

B16: 3577 (antibody, V domains shown)
VH: QVQLQESGPGLVKPSETLSLTCTVSGGSISSYHWNWIRQPPGKGLEWIGYIYYSGNTNYNPSLKSRVSISADTSKNQFSLKLSSVTAADTAVYYCAREMRRGYSGYDYWDLYAFDIWGQGTMVTVSS
VL: DIQLTQSPSFLSASVGDRVTITCRASQGISSYLAWYQQKPGKAPKLLIYTASTLQSGVPSRFSGSGSGTEFTLTISSLQPEDFATYYCQQLNSYPHTFGQGTKLEIK
With B16, the binding result in test [2], in test [3] and in test [4] was “binds” in each case.

B17: 3490 (antibody, V domains shown)
VH: QVQLQESGPGLVKPSETLSLTCAVSGGSISSYYWSWIRQPPGKGLEWIGYIYYSGRTNYNPSLKSRVTISVDTSKNQFSLKLSSVTAADTAVYYCAREMRRGYSGYDDWDLYAFDIWGQGTMVTVSS
VL: DIQLTQSPSFLSTSVGDRVTITCRASQGISSYLAWYQQKPGKAPKLLIYAASTLQSGVPSRFSGSGSGTEFTLTISSLQPEDFATYYCQQFNSYPHTFGQGTKLEI
Regarding B17, the binding result in test [2], in test [3] and in test [4] was “binds” each time.
